Reference: patent publication US20250243261A1

Key:
[1] = molecular target: SARS-CoV-2 Omicron-variant receptor binding domain (RBD) (SARS-CoV-2 Omicron variant); assay: BLI, IgG
[2] = molecular target: SARS-CoV-2 Beta-variant Spike with two stabilizing proline substitutions (S-2P) (SARS-CoV-2 Beta variant); assay: BLI, IgG, single replicate
[3] = molecular target: SARS-CoV-2 Omicron-variant receptor binding domain (RBD) (SARS-CoV-2 Omicron variant); assay: BLI, Fab
[4] = molecular target: SARS-CoV-2 Beta-variant Spike with two stabilizing proline substitutions (S-2P) (SARS-CoV-2 Beta variant); assay: BLI, Fab
[5] = molecular target: SARS-CoV-2 XBB Spike RBD (SARS-CoV-2 XBB variant); assay: BLI, IgG
[6] = molecular target: SARS-CoV-2 XBB.1.5 Spike RBD (SARS-CoV-2 XBB.1.5 variant); assay: BLI, IgG
[7] = molecular target: SARS-CoV-2 BQ.1.1 Spike RBD (SARS-CoV-2 BQ.1.1 variant); assay: BLI, IgG

B1: REGN10987 WT IgG (antibody, V domains shown)
VH: QVQLVESGGGVVQPGRSLRLSCAASGFTFSNYAMYWVRQAPGKGLEWVAVISYDGSNKYYADSVKGRFTISRDNSKNTLYLQMNSLRTEDTAVYYCASGSDYGDYLLVYWGQGTLVTVSS
VL: QSALTQPASVSGSPGQSITISCTGTSSDVGGYNYVSWYQQHPGKAPKLMIYDVSKRPSGVSNRFSGSKSGNTASLTISGLQSEDEADYYCNSLTSISTWVFGGGTKLTVL
Work on B1 yielded a Kd [1] of 700 nM and a Kd [2] of 0.09 nM.

B2: REGN10987 WT Fab (Fab, V domains shown)
VH: B1 VH
VL: B1 VL
In the case of B2, the Kd [3] is reported as 23 µM and the Kd [4] is reported as 13 nM.

B3: SA58 WT IgG (antibody, V domains shown)
VH: QVQLAQSGSELRKPGASVKVSCDTSGHSFTSNAIHWVRQAPGQGLEWMGWINTDTGTPTYAQGFTGRFVFSLDTSARTAYLQISSLKADDTAVFYCARERDYSDYFFDYWGQGTLVTVSS
VL: EVVMTQSPASLSVSPGERATLSCRARASLGISTDLAWYQQRPGQAPRLLIYGASTRATGIPARFSGSGSGTEFTLTISSLQSEDSAVYYCQQYSNWPLTFGGGTKVEIK
B3 showed a Kd [5] of 7.4 µM, a Kd [6] of 2400 nM and a Kd [7] of under 1 pM.
